Square brackets hold non-standard residues; d marks the D form.
Assays:
[1] = target: T1, Aβ1-42 monomers versus Aβ1-42 oligomers and fibrils (biotinylated, D-enantiomeric, immobilized) (Homo sapiens, UniProt P05067); experiment: Monoclonal phage ELISA; type: binding; settings: individual phage clones; species immobilized at 320 nM; absorption at 450 nm normalized with 6E10 control; higher = more monomer-specific
T1 construct: biotinylated, D-enantiomeric Aβ1-42 monomers
Source text: The specificity of the peptide results from the difference in % of the absorption values for the target molecule or the bait (for example A beta monomer) and the normalized absorption values for the competitors (for example A beta oligomers and fibrils) in the monoclonal phage ELISA.
The absorption values then constitute the affinity of individual phage clones for a particular immobilized A beta species. Here, the specificity is not dependent on the strength of the affinity, but instead only on the difference of the affinities between the species. […] The terms “competitors” and “target molecule” or “bait” are defined as specified below.
A method for normalizing the obtained values should therefore be performed. From all absorption values of the individual phage clone in the monoclonal phage ELISA, the values of the phage antibodies tested for cross-reaction can be used as background. This occurs in accordance with the previously immobilized species. The signal values of the phage antibody from the reaction trays with immobilized Aβ1-42 oligomers for this purpose can be removed from the signal values of the individual phage clone from the reaction trays with immobilized Aβ1-42 oligomers. A similar process is then carried out for Aβ1-42 monomers. In this way, a possible background signal of the phage antibody can initially be calculated from the signals of the individual phage clone. […] Only in this way is an equal interpretation of the results particularly in respect of the assessment of the specificity of the individual phage clone possible (see FIG. 2).
The affinity of individual phage clones with respect to the target molecule and the competitors was examined by means of ELISA. For this purpose, all three species were immobilized in biotinylated form on a polystyrene surface at streptavidin bound thereon. Since, during the panning rounds, oligomers and fibrils were added at the same time as competitors, these two species were immobilized in the monoclonal phage ELISA, likewise mixed. […] The streptavidin-coated microtiter plates were pre-washed as specified by the manufacturer. […] For immobilization, 100 μl were used per reaction tray and were incubated for 15 minutes at room temperature. After having washed the entire plate(s) twice with 150 μl 1×TBS per reaction tray, a blocking step with 150 μl 1×TBS/0.1% (v/v) Tween-20/1% (w/v) BSA was performed for an hour at room temperature. Three washing steps with 150 μl 1×TBS/0.1% (v/v) Tween-20 then followed per reaction tray. The amplified individual phage clones were mixed 1:1 with 1× TBS/1% (w/v) BSA. The antibody 6E10 was diluted 1:10,000 in 1×TBS/0.1% (v/v) Tween-20. […] After washing five times with 150 μl 1×TBS/0.1% (v/v) Tween-20 per reaction tray, 200 μl 1×TBS/0.1% (v/v) Tween-20 were placed in each reaction tray, and the plate(s) incubated for one hour at room temperature. The solutions were removed and replaced as follows: In all reaction trays that had been incubated previously with individual phage clone dilutions or the batch without phages, 100 μl of a phage antibody diluted 1:5,000 in 1×TBS/0.1% (v/v) Tween-20 were now added. The enzyme horseradish peroxidase (HRP) was coupled to this antibody and later served for the conversion of a substrate (TMB). […] At the same time, 100 μl of a second antibody diluted 1:1,000 in 1×TBS/0.1% (v/v) Tween-20 were now added to all reaction trays that had been previously incubated with the dilution of the 6E10 antibody, said second antibody being able to identify and bind to the 6E10 antibody originating from mice. This antibody is also HRP-coupled and thus allows a quantification of the binding of the first antibody to the immobilized target molecules or the plastics surface of the reaction tray. After one hour of incubation at room temperature, the plate(s) was/were washed 10 times with 150 μl 1×TBS/0.1% (v/v) Tween-20 per reaction tray. The signal was detected by adding the substrate 3,3′,5,5′-tetramethylbenzidine (TMB). […]

Aβ1-42 = Aβ1-42 (Homo sapiens, UniProt P05067); experiment: ThT test, modulation of Aβ1-42 aggregation; type: biochemical; settings: 10 μM Aβ1-42, equimolar peptide, versus Aβ1-42 alone = 100%
Source text: FIG. 3: The average relative fluorescence from seven independently performed ThT experiments with standard deviation is shown. The dye Thioflavin T (ThT) binds to β-pleated sheet structures in the batch and thereupon changes its fluorescence spectrum. […] The time in which the logarithmic rise of the fluorescence signal transitioned into a stationary phase was set to 100%.

[2] = target: Aβ1-42 species of different size (Homo sapiens, UniProt P05067); experiment: Density gradient centrifugation, tris-tricine SDS gel and silver staining of Aβ1-42 species; type: biochemical; settings: 80 μM Aβ1-42 pre-incubated […], 40 μM peptide for 40 minutes
Experimental: The batch was then incubated either with or without addition of peptide for a further 40 minutes and was then placed on an iodixanol density gradient. The gradient was then centrifuged, wherein the contents of the sample (Aβ1-42 species of different size) diffused within the gradient in accordance with their size and shape. The gradient was fractionated after centrifugation into 15 fractions (1-15), and the first 14 individual fractions were applied to a tris-tricine SDS gel. The contents per fraction were separated electrophoretically. […] The batch was then incubated either without (A) or with addition of different concentrations of Mosd1 (B=10 μM Mossd1; C=20 μM Mosd1; D=40 μM Mosd1; E=80 μM Mosd1) for a further 40 minutes and was then placed on an iodixanol density gradient. The gradient was then centrifuged, wherein the contents of the sample (Aβ1-42 species of different size) diffused within the gradient in accordance with their size and shape. The gradient was fractionated after centrifugation (1-15), and the individual fractions were applied to a tris-tricine SDS gel. The contents per fraction were separated electrophoretically.

transgenic AD mice = settings: oral administration in drinking water; cited from earlier work
PC-12 cells = experiment: MTT reduction test, Aβ1-42-induced cell toxicity; type: cell-based; settings: 0.1% TritonX-100, positive control for cell toxicity
Experimental: The samples were placed in the culture medium of the cells and were incubated over 24 hours with the cells at 37° C. The viability of the cells was then determined on the basis of an MTT test. Here, a metabolic reactant was supplied to the cells, which reactant could be converted by metabolically active cells (living cells). Formazan crystals are the product of this conversion and can be dissolved. The coloration of the medium after solubilization corresponds to the conversion rate of the reactant and therefore the viability of the cells. Untreated cells (medium, white chequered pattern) served as living control, and the proportion of vital cells was defined as 100%. The values of the other batches were normalized to this value.

T1 sequence (P05067 672-713): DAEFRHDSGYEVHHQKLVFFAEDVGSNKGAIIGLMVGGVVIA
Aβ1-42, sequence (P05067 672-713 limits assumed): as the sequence (P05067 672-713) above
Aβ1-42 species of different size, sequence (P05067 672-713 limits assumed): as the sequence (P05067 672-713) above

| Substance | Difference in signal strength between Aβ1-42 monomers (100%) and Aβ1-42 oligomers and fibrils [1] [%] | relative ThT fluorescence (formation of β-pleated sheet structures) (Aβ1-42) | also measured |
| --- | --- | --- | --- |
| GTMLKFSGMNLT (H-G[dT][dM][dL][dK][dF][dS]G[dM][dN][dL][dT]-NH2; SMILES CSCC[C@@H](NC(=O)CNC(=O)[C@@H](CO)NC(=O)[C@@H](Cc1ccccc1)NC(=O)[C@@H](CCCCN)NC(=O)[C@@H](CC(C)C)NC(=O)[C@@H](CCSC)NC(=O)[C@H](NC(=O)CN)[C@H](C)O)C(=O)N[C@H](CC(N)=O)C(=O)N[C@H](CC(C)C)C(=O)N[C@@H](C(N)=O)[C@H](C)O) [Mosd3] | 59.955 | increase the ThT fluorescence | oligomeric Aβ1-42 species (fractions 4-7) [2]: reduce; proportions of high-molecular Aβ1-42 species (fractions 10-14) [2]: increase |
| rprtrlhthrnr [Mosd D3] |  |  | cognitive capabilities (transgenic AD mice): significantly improved cognitive capabilities; plaques (transgenic AD mice): much fewer plaques |
| TritonX-100 [reference compound] |  |  | amount of viable cells (untreated cells = 100%) (PC-12 cells): 1.5% |
| HTWTTYDYVWRL (H-[dH][dT][dW][dT][dT][dY][dD][dY][dV][dW][dR][dL]-NH2; SMILES CC(C)C[C@@H](NC(=O)[C@@H](CCCNC(=N)N)NC(=O)[C@@H](Cc1c[nH]c2ccccc12)NC(=O)[C@H](NC(=O)[C@@H](Cc1ccc(O)cc1)NC(=O)[C@@H](CC(=O)O)NC(=O)[C@@H](Cc1ccc(O)cc1)NC(=O)[C@H](NC(=O)[C@H](NC(=O)[C@@H](Cc1c[nH]c2ccccc12)NC(=O)[C@H](NC(=O)[C@H](N)Cc1c[nH]cn1)[C@H](C)O)[C@H](C)O)[C@H](C)O)C(C)C)C(N)=O) [Mosd2] | 67.145 | increase the ThT fluorescence | oligomeric Aβ1-42 species (fractions 4-7) [2]: reduce; proportions of high-molecular Aβ1-42 species (fractions 10-14) [2]: increase |
| HNWFYWTTEPYD (H-[dH][dN][dW][dF][dY][dW][dT][dT][dE][dP][dY][dD]-NH2; SMILES C[C@H](O)[C@@H](NC(=O)[C@@H](Cc1c[nH]c2ccccc12)NC(=O)[C@@H](Cc1ccc(O)cc1)NC(=O)[C@@H](Cc1ccccc1)NC(=O)[C@@H](Cc1c[nH]c2ccccc12)NC(=O)[C@@H](CC(N)=O)NC(=O)[C@H](N)Cc1c[nH]cn1)C(=O)N[C@@H](C(=O)N[C@H](CCC(=O)O)C(=O)N1CCC[C@@H]1C(=O)N[C@H](Cc1ccc(O)cc1)C(=O)N[C@H](CC(=O)O)C(N)=O)[C@H](C)O) [Mosd4] | 69.154 | only a very small influence |  |
| LSMNITTVHRWH (H-[dL][dS][dM][dN][dI][dT][dT][dV][dH][dR][dW][dH]-NH2; SMILES CC[C@@H](C)[C@@H](NC(=O)[C@@H](CC(N)=O)NC(=O)[C@@H](CCSC)NC(=O)[C@@H](CO)NC(=O)[C@H](N)CC(C)C)C(=O)N[C@@H](C(=O)N[C@@H](C(=O)N[C@@H](C(=O)N[C@H](Cc1c[nH]cn1)C(=O)N[C@H](CCCNC(=N)N)C(=O)N[C@H](Cc1c[nH]c2ccccc12)C(=O)N[C@H](Cc1c[nH]cn1)C(N)=O)C(C)C)[C@H](C)O)[C@H](C)O) [Mosd11] | 57.671 |  |  |
| GQWDFRQWWQPC (H-G[dQ][dW][dD][dF][dR][dQ][dW][dW][dQ][dP][dC]-NH2; SMILES N=C(N)NCCC[C@@H](NC(=O)[C@@H](Cc1ccccc1)NC(=O)[C@@H](CC(=O)O)NC(=O)[C@@H](Cc1c[nH]c2ccccc12)NC(=O)[C@@H](CCC(N)=O)NC(=O)CN)C(=O)N[C@H](CCC(N)=O)C(=O)N[C@H](Cc1c[nH]c2ccccc12)C(=O)N[C@H](Cc1c[nH]c2ccccc12)C(=O)N[C@H](CCC(N)=O)C(=O)N1CCC[C@@H]1C(=O)N[C@H](CS)C(N)=O) [Mosd15] | 59.985 |  |  |
| DWSSRVYRDPQT (H-[dD][dW][dS][dS][dR][dV][dY][dR][dD][dP][dQ][dT]-NH2; SMILES CC(C)[C@@H](NC(=O)[C@@H](CCCNC(=N)N)NC(=O)[C@@H](CO)NC(=O)[C@@H](CO)NC(=O)[C@@H](Cc1c[nH]c2ccccc12)NC(=O)[C@H](N)CC(=O)O)C(=O)N[C@H](Cc1ccc(O)cc1)C(=O)N[C@H](CCCNC(=N)N)C(=O)N[C@H](CC(=O)O)C(=O)N1CCC[C@@H]1C(=O)N[C@H](CCC(N)=O)C(=O)N[C@@H](C(N)=O)[C@H](C)O) [Mosd16] | 52.387 |  |  |
| ERSQWGHRDPQS (H-[dE][dR][dS][dQ][dW]G[dH][dR][dD][dP][dQ][dS]-NH2; SMILES N=C(N)NCCC[C@@H](NC(=O)[C@H](N)CCC(=O)O)C(=O)N[C@H](CO)C(=O)N[C@H](CCC(N)=O)C(=O)N[C@H](Cc1c[nH]c2ccccc12)C(=O)NCC(=O)N[C@H](Cc1c[nH]cn1)C(=O)N[C@H](CCCNC(=N)N)C(=O)N[C@H](CC(=O)O)C(=O)N1CCC[C@@H]1C(=O)N[C@H](CCC(N)=O)C(=O)N[C@H](CO)C(N)=O) [Mosd17] | 54.492 |  |  |
